Laboratory results: paper PMC9037348

Biological target: GFP-CaV1.1e (embryonic splice variant of CaV1.1, lacking exon 29)

shift of the half-maximal potential of steady-state inactivation of CaV1.1e calcium currents to hyperpolarizing potentials on coexpression of γ1 (whole-cell patch clamp, HEK-TetOn-STAC3 cells): 13.7 mV
B1: γ1 subunit of the skeletal muscle voltage-gated calcium channel (mouse γ1) (natural protein)
chain: MSQTKTAKVRVTLFFILVGGVLAMVAVVTDHWAVLSPHLEHHNETCEAAHFGLWRICTARVAVHNKDKSCEHVTPSGEKNCSYFRHFNPGESSEIFEFTTQKEYSISAAAIAIFSLGFIIVGSICAFLSFGNKRDYLLRPASMFYAFAGLCLIVSVEVMRQSVKRMIDSEDTVWIEHYYSWSFACACAAFILLFLGGLFLLLFSLPRMPQNPWESCMDAEPEH
